Target: H3_(1-15)K4me3 peptide with an added C-terminal Tyr (UniProt P68431)
Experiment: ITC

Recombinant JARID1A_(PHD3) protein used for calorimetry (domain or fragment)
Kd: 750 nM
